Measurements: PMC8448823, “Structural basis of RNA polymerase inhibition by viral and host factors” (Nature Communications, 2021)

Experiments:
Details in all cases: both partners purified
[1] = target: T1, Rpo1′ subunit of Sulfolobus acidocaldarius RNA polymerase (Sulfolobus acidocaldarius, UniProt P11512 1-880); experiment: cryo-EM structure; RNAP incubated and cross-linked (BS3, 65 °C) in presence of a 20 molar fold excess of TFS4; map at 2.61 Å
T1 construct: Rpo1′, subunit of the Sulfolobus acidocaldarius RNA polymerase (clamp, rim helices, bridge helix); Stood within the whole 13-subunit RNAP; source: part of the RNAP purified from Saci strain MW001

[2] = target: T2, Rpo1″ subunit of Sulfolobus acidocaldarius RNA polymerase (Sulfolobus acidocaldarius, UniProt P11514 1-393); experiment: as above
T2 construct: Rpo1″, subunit of the Sulfolobus acidocaldarius RNA polymerase (upper jaw, trigger loop); Stood within the whole 13-subunit RNAP; source: part of the RNAP purified from Saci strain MW001

[3] = target: T3, Rpo2 subunit of Sulfolobus acidocaldarius RNA polymerase (Sulfolobus acidocaldarius, UniProt P11513 1-1126); experiment: as above
T3 construct: Rpo2, subunit of the Sulfolobus acidocaldarius RNA polymerase (protrusion and lobe); Stood within the whole 13-subunit RNAP; source: part of the RNAP purified from Saci strain MW001

[4] = target: T1, Rpo1′ subunit of Sulfolobus …; experiment: cryo-EM structure; apo-RNAP cross-linked with 2 mM BS3 for 5 min at 65 °C; 20 mM Hepes pH 7.0, 200 mM NaCl, 5 mM MgCl2; map at 2.88 Å
[5] = target: T1, Rpo1′ subunit of Sulfolobus …; experiment: cryo-EM structure; RNAP incubated with a 10-fold excess of RIP for 5 min at 65 °C, then cross-linked with 2 mM BS3; 20 mM Hepes pH 7.0, 200 mM NaCl, 5 mM MgCl2; map at 3.27 Å
[6] = target: T3, Rpo2 subunit of Sulfolobus …; experiment: as above

T1 sequence (P11512 whole entry): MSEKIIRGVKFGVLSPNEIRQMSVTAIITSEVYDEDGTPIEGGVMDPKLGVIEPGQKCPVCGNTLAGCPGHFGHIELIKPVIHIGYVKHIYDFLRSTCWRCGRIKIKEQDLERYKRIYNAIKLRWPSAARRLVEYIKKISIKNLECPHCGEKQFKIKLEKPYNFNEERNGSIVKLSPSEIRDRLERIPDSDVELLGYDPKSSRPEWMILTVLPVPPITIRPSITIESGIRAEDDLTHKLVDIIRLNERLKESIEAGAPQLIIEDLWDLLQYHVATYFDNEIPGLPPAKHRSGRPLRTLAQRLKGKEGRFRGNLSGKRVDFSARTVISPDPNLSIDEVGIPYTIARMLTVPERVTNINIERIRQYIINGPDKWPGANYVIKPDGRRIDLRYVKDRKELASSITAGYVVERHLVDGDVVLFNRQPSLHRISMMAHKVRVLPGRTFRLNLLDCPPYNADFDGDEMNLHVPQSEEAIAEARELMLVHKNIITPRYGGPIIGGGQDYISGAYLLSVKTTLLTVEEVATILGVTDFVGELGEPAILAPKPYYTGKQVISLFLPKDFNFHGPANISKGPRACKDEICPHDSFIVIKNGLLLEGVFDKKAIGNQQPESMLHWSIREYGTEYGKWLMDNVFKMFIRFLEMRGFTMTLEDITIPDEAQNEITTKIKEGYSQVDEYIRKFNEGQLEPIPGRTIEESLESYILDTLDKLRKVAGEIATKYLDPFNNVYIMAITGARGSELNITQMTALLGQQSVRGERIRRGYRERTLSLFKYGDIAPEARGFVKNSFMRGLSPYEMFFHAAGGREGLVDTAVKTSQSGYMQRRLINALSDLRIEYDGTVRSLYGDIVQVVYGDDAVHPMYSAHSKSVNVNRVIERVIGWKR
T3 sequence (P11513 whole entry): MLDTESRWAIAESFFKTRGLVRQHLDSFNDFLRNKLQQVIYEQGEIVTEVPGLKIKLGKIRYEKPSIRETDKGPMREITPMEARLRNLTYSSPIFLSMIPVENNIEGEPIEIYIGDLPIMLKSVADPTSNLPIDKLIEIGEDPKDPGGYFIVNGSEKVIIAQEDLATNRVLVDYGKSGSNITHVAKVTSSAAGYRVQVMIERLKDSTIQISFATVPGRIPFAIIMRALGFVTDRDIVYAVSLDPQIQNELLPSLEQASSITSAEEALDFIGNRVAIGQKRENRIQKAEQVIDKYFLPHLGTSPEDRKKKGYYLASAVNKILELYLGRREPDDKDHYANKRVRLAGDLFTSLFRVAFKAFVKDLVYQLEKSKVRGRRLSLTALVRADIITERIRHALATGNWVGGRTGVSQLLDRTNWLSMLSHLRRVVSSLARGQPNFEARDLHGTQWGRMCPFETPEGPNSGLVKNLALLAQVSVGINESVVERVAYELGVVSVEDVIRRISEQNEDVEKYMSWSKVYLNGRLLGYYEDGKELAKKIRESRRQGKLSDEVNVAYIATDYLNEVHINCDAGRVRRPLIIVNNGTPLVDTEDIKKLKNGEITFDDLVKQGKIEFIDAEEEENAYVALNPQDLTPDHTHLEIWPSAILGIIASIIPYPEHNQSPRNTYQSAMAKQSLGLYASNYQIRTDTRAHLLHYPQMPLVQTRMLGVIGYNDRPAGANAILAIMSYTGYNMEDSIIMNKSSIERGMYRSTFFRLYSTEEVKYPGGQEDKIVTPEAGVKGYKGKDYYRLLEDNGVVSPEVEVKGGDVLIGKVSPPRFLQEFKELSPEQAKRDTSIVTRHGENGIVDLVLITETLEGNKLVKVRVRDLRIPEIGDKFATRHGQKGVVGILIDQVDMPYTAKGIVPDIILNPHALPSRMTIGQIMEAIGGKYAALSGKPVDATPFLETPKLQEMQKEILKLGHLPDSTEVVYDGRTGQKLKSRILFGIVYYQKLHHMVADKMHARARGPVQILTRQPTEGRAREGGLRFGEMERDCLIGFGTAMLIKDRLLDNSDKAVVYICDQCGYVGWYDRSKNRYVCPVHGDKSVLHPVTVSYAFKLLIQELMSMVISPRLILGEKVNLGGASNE
T2 sequence (P11514 whole entry): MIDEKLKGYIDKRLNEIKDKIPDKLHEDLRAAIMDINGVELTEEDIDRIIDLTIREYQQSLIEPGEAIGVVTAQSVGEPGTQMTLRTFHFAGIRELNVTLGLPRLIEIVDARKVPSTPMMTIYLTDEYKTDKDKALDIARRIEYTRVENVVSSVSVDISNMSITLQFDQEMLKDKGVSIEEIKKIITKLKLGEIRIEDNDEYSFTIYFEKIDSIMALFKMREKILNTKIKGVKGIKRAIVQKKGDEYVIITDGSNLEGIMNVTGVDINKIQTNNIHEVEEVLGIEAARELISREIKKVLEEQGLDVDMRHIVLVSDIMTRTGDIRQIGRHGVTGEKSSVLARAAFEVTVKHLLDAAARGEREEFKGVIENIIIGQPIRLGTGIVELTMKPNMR

B1: Sso TFS4 (natural protein)
chain: MRFCPKCGSFLKVKGNKMVCSKCGYSDHDVEKVILKENVAHENDKTIIADGETIEGRVAISLCPRCGSVRAILLNKKKRLYRCMTCNFVYNI
notes: TFS4, paralogue of the transcript cleavage factor TFS; two zinc-ribbon domains ZR^N and ZR^C joined by a linker; expressed without tag; source: E. coli BL21 pLysS, purified (heat step 65 °C, HiTrap Q, Superose 12)
- binding result [1]: binds
- binding result [2]: binds
- binding result [3]: binds

B2: Rpo8 subunit of Sulfolobus acidocaldarius RNA polymerase (natural protein)
chain: MMQGTCKISSIEKGALKNLYVVKMDCDNDLKIEFDITKELSIFSKDEEVTFIISREKPEYSEKDFCAHGYLFLERQQEDGSFIDEISLYGLIVKILSKNGLINSKLFKMMDHVYYCVKKKA
notes: Rpo8, subunit of the Sulfolobus acidocaldarius RNA polymerase; holds the conserved GGLLM motif; Stood within the whole 13-subunit RNAP; source: part of the RNAP purified from Saci strain MW001
- binding result [4]: binds

B3: ATV RIP (RNAP Inhibitory Protein, ORF145) of Acidianus two-tailed virus (natural protein, Acidianus two-tailed virus (ATV))
chain: MKNMLHPQKYETHVLDDLMEFYEGVIGYPEIDLRLAGEEAWLKGVNPELAEAVKKIIKTIRRYLEGSPYDGSEKPIPRYIIAEIFSQIAPEVQLLVNALDTEGKYGFLKHIKKLNLNSLAMLSKNYNENDKLWKELENEGYVYLE
notes: RIP (ORF145) of Acidianus two-tailed virus (ATV); 145 aa printed; residues 10–127 resolved in the RNAP–RIP structure; source: E. coli BL21 pLyS, purified (heat step 60 °C, Ni-column, TEV cleavage, second Ni-column); not shown: 6×His, N-terminal, cleaved
- binding result [5]: binds
- binding result [6]: binds
